# Test results as given in patent publication US20200040101A1.
# Columns and labels:
# [1] = molecular target: CLDN18.1 expressed on HEK 293 cells (UniProt P56856); assay: FACS, secondary antibody alone on HEK 293 cells expressing CLDN 18.1
# [2] = molecular target: human Claudin 18.2 (CLDN18.2) expressed on cells (human) (UniProt P56856); assay: FACS, secondary antibody alone on HEK 293 cells expressing CLDN 18.2
substance,measurement,setting,value
Sec. antibody,MFI,[1],18
same,MFI,[2],53
